Publication PMC6513101, “Experimentally guided computational antibody affinity maturation with de novo docking, modelling and rational design” (PLoS Computational Biology, 2019)
Numbering of substitutions follows the chain as printed. In names and notes the source's numbering stands.

B1: AB1 alanine variant 19 (H:Y26A) (antibody, V domains shown)
VH: QVQLQQSGAELAKPGSSVKISCKAAGSSFTTNSIHWIKQTTGQALEWTGYIAPGSGGARYNEKFKGKATLTVDKSSGTAYMQLSSLTPVDTAVYYCALNIGTNPFTYWGQGTLVTVSS
VL: DIVMTQGALPNPVPSGESVSITCRSSKSLLYSDGKTYLNWYLQRPGQSPQLLIYWMSTRASGVSDRFSGSGSGTDFTLKISGVEAEDVGVYYCQQGLEFPRTFGSGTKLEIK
notes: IMGT numbering; IgG1, as m1; also called control; source: HEK293FT, transiently transfected, purified (Protein A)
B2: AB1 affinity maturation variant 13 (H:T116R) (antibody, V domains shown)
VH: B1 VH with A25Y, T106R
VL: B1 VL
notes: IMGT numbering; IgG1, as m1; source: HEK293FT, transiently transfected, purified (Protein A)
B3: AB1 alanine variant 21 (L:Y31A/Y38A) (antibody, V domains shown)
VH: B1 VH with A25Y
VL: B1 VL with Y31A, Y37A
notes: IMGT numbering; IgG1, as m1; intermediate construct; source: HEK293FT, transiently transfected, purified (Protein A)
B4: AB1 affinity maturation variant 19 (L:F114R) (antibody, V domains shown)
VH: B1 VH with A25Y
VL: B1 VL with F99R
notes: as for B2
B5: AB1 affinity maturation variant 18 (L:Y38R) (antibody, V domains shown)
VH: B1 VH with A25Y
VL: B1 VL with Y37R
notes: as for B2
B6: AB1 affinity maturation variant 2 (H:S29D) (antibody, V domains shown)
VH: B1 VH with A25Y, S28D
VL: B1 VL
notes: as for B2
B7: AB1 alanine variant 18 (L:R116A) (antibody, V domains shown)
VH: B1 VH with A25Y
VL: B1 VL with R101A
notes: as for B2
B8: AB1 affinity maturation variant 7 (H:A65Y) (antibody, V domains shown)
VH: B1 VH with A25Y, A58Y
VL: B1 VL
notes: as for B2
B9: AB1 affinity maturation variant 9 (H:T110W) (antibody, V domains shown)
VH: B1 VH with A25Y, T102W
VL: B1 VL
notes: as for B2
B10: AB1 alanine variant 20 (L:S26A) (antibody, V domains shown)
VH: B1 VH with A25Y
VL: B1 VL with S26A
notes: as for B1
B11: AB1 affinity maturation variant 8 (H:I108R) (antibody, V domains shown)
VH: B1 VH with A25Y, I100R
VL: B1 VL
notes: as for B2
B12: AB1 alanine variant 4 (H:N113A) (antibody, V domains shown)
VH: B1 VH with A25Y, N103A
VL: B1 VL
notes: as for B2
B13: AB1 alanine variant 10 (H:S28A) (antibody, V domains shown)
VH: B1 VH with A25Y, S27A
VL: B1 VL
notes: as for B2
B14: AB1 alanine variant 16 (L:K36A) (antibody, V domains shown)
VH: B1 VH with A25Y
VL: B1 VL with K35A
notes: as for B2
B15: AB1 alanine variant 13 (H:T110A) (antibody, V domains shown)
VH: B1 VH with A25Y, T102A
VL: B1 VL
notes: as for B2
B16: AB1 affinity maturation variant 15 (L:D34Q) (antibody, V domains shown)
VH: B1 VH with A25Y
VL: B1 VL with D33Q
notes: as for B2
B17: AB1 alanine variant 5 (H:Y55A, H:R66A, L:Y31A) (antibody, V domains shown)
VH: B1 VH with A25Y, Y50A, R59A
VL: B1 VL with Y31A
notes: as for B2
B18: AB1 affinity maturation variant 20 (L:Q106Y) (antibody, V domains shown)
VH: B1 VH with A25Y
VL: B1 VL with Q95Y
notes: IMGT numbering; IgG1, as m1; also called neutral control mutation; source: HEK293FT, transiently transfected, purified (Protein A)
B19: AB1 affinity maturation variant 14 (L:S32D) (antibody, V domains shown)
VH: B1 VH with A25Y
VL: B1 VL with S32D
notes: as for B2
B20: AB1 affinity maturation variant 17 (L:K36R) (antibody, V domains shown)
VH: B1 VH with A25Y
VL: B1 VL with K35R
notes: as for B2
B21: AB1 alanine variant 22 (L:Y31A/D34A) (antibody, V domains shown)
VH: B1 VH with A25Y
VL: B1 VL with Y31A, D33A
notes: as for B3
B22: AB1 affinity maturation variant 12 (H:F115H) (antibody, V domains shown)
VH: B1 VH with A25Y, F105H
VL: B1 VL
notes: as for B2
B23: AB1 alanine variant 2 (H:T35A) (antibody, V domains shown)
VH: B1 VH with A25Y, T30A
VL: B1 VL
notes: as for B2
B24: AB1 alanine variant 1 (H:S29A) (antibody, V domains shown)
VH: B1 VH with A25Y, S28A
VL: B1 VL
notes: as for B2
B25: AB1 affinity maturation variant 4 (H:N37T) (antibody, V domains shown)
VH: B1 VH with A25Y, N32T
VL: B1 VL
notes: as for B2
B26: AB1 alanine variant 14 (L:Y31A) (antibody, V domains shown)
VH: B1 VH with A25Y
VL: B1 VL with Y31A
notes: as for B2
B27: AB1 alanine variant 3 (H:R66A) (antibody, V domains shown)
VH: B1 VH with A25Y, R59A
VL: B1 VL
notes: as for B2
B28: AB1 affinity maturation variant 5 (H:G59Y) (antibody, V domains shown)
VH: B1 VH with A25Y, G54Y
VL: B1 VL
notes: as for B2
B29: AB1 affinity maturation variant 10 (H:T110F) (antibody, V domains shown)
VH: B1 VH with A25Y, T102F
VL: B1 VL
notes: as for B2
B30: AB1 affinity maturation variant 6 (H:G64T) (antibody, V domains shown)
VH: B1 VH with A25Y, G57T
VL: B1 VL
notes: as for B2
B31: AB1 alanine variant 23 (H:T35A/N107A/L:Y31A) (antibody, V domains shown)
VH: B1 VH with A25Y, T30A, N99A
VL: B1 VL with Y31A
notes: as for B3
B32: AB1 affinity maturation variant 11 (H:N113R) (antibody, V domains shown)
VH: B1 VH with A25Y, N103R
VL: B1 VL
notes: as for B2
B33: AB1 affinity maturation variant 3 (H:T36Q) (antibody, V domains shown)
VH: B1 VH with A25Y, T31Q
VL: B1 VL
notes: as for B2

target: T1, biotinylated murine CCL20 (Mus musculus, UniProt O89093, biotin); test: ELISA; capture ELISA: plate-coated anti-mouse Fc antibody (1 ug/mL) captures the antibody variant (5 ug/mL); biotinylated muCCL20 titrated from 0 to 600 nM, 1 h; conditions: both partners purified
T1 construct: CCL20, mouse; recombinant; m2 with biotin; also called biotinylated muCCL20; muCCL20 antigen; source: in-house, standard mammalian cell expression; biotinylated

Q: Does B1 bind?
A: binds

Q: Does B2 bind?
A: binds

Q: Does B3 bind?
A: no binding (tested: 600 nM)

Q: Does B4 bind?
A: binds

Q: Does B5 bind?
A: binds

Q: Does B6 bind?
A: binds

Q: Does B7 bind?
A: binds

Q: Does B8 bind?
A: binds

Q: Does B9 bind?
A: binds

Q: Does B10 bind?
A: binds

Q: Does B11 bind?
A: binds

Q: Does B12 bind?
A: no binding (tested: 600 nM)

Q: Does B13 bind?
A: binds

Q: For B14, which “fold reduction of binding affinity against WT AB1” value is on record?
A: 3 fold

Q: Does B15 bind?
A: binds

Q: Does B16 bind?
A: binds

Q: Does B17 bind?
A: binds

Q: Does B18 bind?
A: binds

Q: Does B19 bind?
A: binds

Q: Does B20 bind?
A: binds

Q: Does B21 bind?
A: no binding (tested: 600 nM)

Q: Does B22 bind?
A: binds

Q: Does B23 bind?
A: binds

Q: Does B24 bind?
A: binds

Q: Does B25 bind?
A: binds

Q: Does B26 bind?
A: binds

Q: Does B27 bind?
A: binds

Q: Does B28 bind?
A: binds

Q: Does B29 bind?
A: binds

Q: Does B30 bind?
A: binds

Q: Does B31 bind?
A: no binding (tested: 600 nM)

Q: Does B32 bind?
A: binds

Q: Does B33 bind?
A: binds
